# Measured values reported in the RNAGym collection of RNA variant scans (doi:10.1093/molbev/msab373).
# B1: Azoarcus group I ribozyme (parent)
# chain: GUGCCUUGCGCCGGGAAACCACGCAAGGGAUGGUGUCAAAUUCGGCGAAACCUAAGCGCCCGCCCGGGCGUAUGGCAACGCCGAGCCAAGCUUCGGCGCCUGCGCCGAUGAAGGUGUAGAGACUAGACGGCACCCACCUAAGGCAAACGCUAUGGUGAAGGCAUAGUCCAGGGAGUGGCGAAAGUCACACAAACCGG
# Variants of: B1
# Assay: reverse-splicing fitness (ratio to wild type); higher = more active; in vitro selection; Mg2+ level not given
# How it was run: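 An in vitro group I ribozyme library with randomized positions was T7-transcribed and gel-purified. In triplicate, 10 pmol RNA in EPPS pH 7.5 was reacted with 50 pmoles of a 30-nt RNA substrate for 1 h at 37 °C across several added MgCl2 levels (1–48 mM), then stopped with EDTA. Products were reverse transcribed from a substrate-complementary primer, PCR-amplified and sequenced (HiSeq 4000). Fitness is a variant's read proportion after selection over that before, normalised to wild type.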
row,Variant,reverse-splicing fitness
1,C82G A111U A120U A145U C169G,0.00331
2,C82G A111U A120U A145U C169A,0.00258
3,C82G A111U A145C C150G C169U U176G,0.00634
4,C82G A111U A145C C150G C169U U176C,0.0102
5,C82G A111U A145C C150G C169U U176A,0.00891
6,C82G A111U A120U C150A C169U U176C,0.00482
7,C82G A111U A120U C150A C169U U176A,0.00604
8,C82G A111U A120U C150A C169U U176G,0.00236
9,C82G A111U A145C C150G,0.0354
10,C82G A111U A145C C150U,0.0722
11,C82G A111U A145C C150A,0.0198
12,C82G A111U C150G C169G U176A,0.0074
13,C82G A111U C150G C169G U176G,0.00662
14,C82G A111U C150G C169G U176C,0.00587
15,C82G A111U A120U A145U C150G C169U,0.0032
16,C82G A111U A145G C150A C169U U176A,0.0166
17,C82G A111U A145G C150A C169U U176C,0.0149
18,C82G A111U A145G C150A C169U U176G,0.00791
19,C82G A111U A120U A145U C150G C169G U176C,0.00282
20,C82G A111U A120U A145U C150G C169G U176G,0.0021
21,C82G A111U A120U C150G C169A U176G,0.00291

row,Variant,reverse-splicing fitness
1,C82G A111U A120U C150G C169A U176C,0.00545
2,C82G A111U A120U C150G C169A U176A,0.00533
3,C82G A111U A120U C150A C169G,0.00506
4,C82G A111U A120U C150A C169U,0.00448
5,C82G A111U A120U C150A C169A,0.0047
6,C82G A111U A120U C169G,0.00462
7,C82G A111U A120U C169A,0.0043
8,C82G A111U A120U C169U,0.00476
9,C82G A111U C150A C169A,0.0114
10,C82G A111U C150A C169G,0.00899
11,C82G A111U C150A C169U,0.0113
12,C82G A111U A145G C150G C169U U176C,0.0134
13,C82G A111U A145G C150G C169U U176G,0.00808
14,C82G A111U A145G C150G C169U U176A,0.0125
15,C82G A111U A145C C150A U176A,0.0163
16,C82G A111U A145C C150A U176C,0.0187
17,C82G A111U A145C C150A U176G,0.00844
18,C82G A111U C150U C169A U176G,0.00647
19,C82G A111U C150U C169A U176C,0.0148
20,C82G A111U C150U C169A U176A,0.0188
21,C82G A111U A145G C169U U176C,0.0155

row,Variant,reverse-splicing fitness
1,C82G A111U A145G C169U U176G,0.00532
2,C82G A111U A145G C169U U176A,0.0134
3,C82G A111U A120U C169A U176G,0.00169
4,C82G A111U A120U C169A U176A,0.00362
5,C82G A111U A120U C169A U176C,0.00299
6,C82G A111U A145C U176G,0.0756
7,C82G A111U A145C U176A,0.19
8,C82G A111U A145C U176C,0.224
9,C82G A111U A145U,0.387
10,C82G A111U A145C,0.365
11,C82G A111U A145G,0.424
12,C82G A111U A145G C150G C169A U176A,0.0133
13,C82G A111U A145G C150G C169A U176G,0.00877
14,C82G A111U A145G C150G C169A U176C,0.0129
15,C82G A111U A145C C150G U176G,0.00504
16,C82G A111U A145C C150G U176C,0.0238
17,C82G A111U A145C C150G U176A,0.0157
18,C82G A111U A145U C150U C169A U176G,0.00678
19,C82G A111U A145U C150U C169A U176C,0.0125
20,C82G A111U A145U C150U C169A U176A,0.0143
21,C82G A111U A145C C150G C169A U176A,0.00976

row,Variant,reverse-splicing fitness
1,C82G A111U A145C C150G C169A U176G,0.00713
2,C82G A111U A145C C150G C169A U176C,0.00812
3,C82G A111U A145G C150U U176G,0.0447
4,C82G A111U A145G C150U U176A,0.144
5,C82G A111U A145G C150U U176C,0.196
6,C82G A111U A145C C169G U176A,0.0258
7,C82G A111U A145C C169G U176C,0.0144
8,C82G A111U A145C C169G U176G,0.00528
9,C82G A111U A145C C169A U176A,0.0121
10,C82G A111U A145C C169A U176C,0.00791
11,C82G A111U A145C C169A U176G,0.00501
12,C82G A111U A145U C169A,0.00754
13,C82G A111U A145U C169G,0.00896
14,C82G A111U A145U C169U,0.0113
15,C82G A111U A145G C169U,0.0131
16,C82G A111U A145G C169A,0.0087
17,C82G A111U A145G C169G,0.00953
18,C82G A111U A145C C169A,0.00732
19,C82G A111U A145C C169U,0.0121
20,C82G A111U A145C C169G,0.00826
